In US10881612B2, “Cationic liposomes for cancer immunotherapy” (The Methodist Hospital, priority 2015, dated 2021):

B1: IL-12: Recombinant mouse IL-12 purchased from R&D Systems (protein, UniProt P43431 23-215; P43432 23-335, looked up)
Interleukin-12 subunit alpha: RVIPVSGPARCLSQSRNLLKTTDDMVKTAREKLKHYSCTAEDIDHEDITRDQTSTLKTCLPLELHKNESCLATRETSSTTRGSCLPPQKTSLMMTLCLGSIYEDLKMYQTEFQAINAALQNHNHQQIILDKGMLVAIDELMQSLNHNGETLRQKPPVGEADPYRVKMKLCILLHAFSTRVVTINRVMGYLSSA
Interleukin-12 subunit beta: MWELEKDVYVVEVDWTPDAPGETVNLTCDTPEEDDITWTSDQRHGVIGSGKTLTITVKEFLDAGQYTCHKGGETLSHSHLLLHKKENGIWSTEILKNFKNKTFLKCEAPNYSGRFTCSWLVQRNMDLKFNIKSSSSSPDSRAVTCGMASLSAEKVTLDQRDYEKYSVSCQEDVTCPTAEETLPIELALEARQQNKYENYSTSFFIRDIIKPDPPKNLQMKPLKNSQVEVSWEYPDSWSTPHSYFSLKFFVRIQRKKEKMKETEEGCNQKGAFLVEKTSTEVQCKGGNVCVQAQDRYYNSSCSKWACVPCRVRS

What was measured:
[1] = system: 4T1 orthotopic breast tumors; experiment: Therapeutic efficacy study, intratumoral injection; format: in vivo, BALB/c mice; settings: intratumoral injection once a week for two weeks
Method: Breast cancer tumors were established in BALB/c mice by intramammary injection of 1×10^5 4T1-luciferase cells. When tumors reached a median size of 100-200 mm^3, mice were administered intratumoral injections as follows: PBS control, Free MPL (6.25 μg), control liposomes (50 μL; 1 mg lipid); MPL liposomes (50 μL), and IL-12 (5 μg) with/without MPL liposomes. Tumor growth was monitored by caliper measurements three times per week and by luciferase expression measured weekly using the Xenogen IVIS-200 System (Perkin Elmer Inc., Waltham, Mass., USA) following intra-peritoneal injection of 75 mg/kg RediJect D-Luciferin (Perkin Elmer Inc.), 24-26 days after initiation of tumor growth, mice were sacrificed, blood was collected by retro-orbital bleeding, and tumor and spleen were collected for immunohistochemical, weight, and size analysis. Dual tumors were grown in naïve mice using the same experimental conditions with intratumoral injection of particles limited to a single tumor.
Breast cancer tumors were established in BALB/c mice by intramammary injection of 1×10^5 4T1-luciferase cells. When tumors reached a median size of 100-200 mm^3, mice were administered intratumoral injections as follows: PBS control. Free MPL (6.25 μg), control liposomes (50 μL; 1 mg lipid): MPL liposomes (50 μL), and IL-12 (5 μg) with/without MPL liposomes. […]

4T1 tumors [2] = experiment: In vivo tumor cytotoxicity (H&E and TUNEL staining) after intratumoral injection; settings: 24 hours after intratumoral injection
Method: (§1) The cytotoxicity of cationic liposomes to 4T1 breast cancer cells was evaluated by flow cytometry using propodium iodide (PI). Using a 24 well plate format, cells were treated with 4 μg control or MPL liposomes, or free MPL (250 ng) for 24 hours. Cells were released using trypsin and treated with PI according to manufacturer's protocol (Invitrogen). Samples were analyzed using a LSR II™ Flow Cytometer (BD Biosciences, Mountain View, Calif., USA) equipped with […] ™ software (2007). In vivo tumor cytotoxicity of cationic liposomes was evaluated in BALB/c mice bearing 200 mm^3 4T1 tumors 24 hours following intratumoral injection of liposomes (50 μL; 1 mg lipid). […]
(§2) The cytotoxicity of cationic liposomes to 4T1 breast cancer cells was evaluated by flow cytometry using propidium iodide (PI). […] Samples were analyzed using a LSR II® Flow Cytometer (BD Biosciences. Mountain View, Calif., USA) equipped with […] ™ software (2007). In vivo tumor cytotoxicity of cationic liposomes was evaluated in BALB/c mice bearing 200 mm^3 4T1 tumors 24 hr following intratumoral injection of liposomes (50 μL; 1 mg lipid). Excised tumors were embedded in paraffin, sectioned, and stained with hematoxylin/eosin, or analyzed for apoptosis using the DeadEnd® Fluorometric TUNEL System (Promega Corp., Madison. Wis., USA).

4T1 breast cancer cells = experiment: Cytotoxicity of cationic liposomes by propidium iodide flow cytometry; format: cell-based, mouse; settings: 4T1 cells, 4 μg/mL liposomes or free MPL (250 ng), 24 hours, n=3
Method: as §1, §2

4T1 tumor [3] = experiment: V-sense 19F MRI / confocal tracking of macrophage infiltration into tumor; format: in vivo, mice; settings: after IL-12 intratumoral injection, tumors extracted 24 hours post imaging
Excerpt: Macrophage accumulation has been documented to contribute to cancer progression through suppression of the immune response and promotion of tumor vascularization (Mielgo et al., 2013). V-sense is a perfluorocarbon emulsion that is taken up by monocytes and macrophages, allowing for in-vivo detection through ^19F MRI. Ahrens, et al. (2011) successfully quantified V-sense in inflamed tissues of the central nervous system in an ex-vivo model of allergic encephalomyelitis, which they correlated with immunohistochemistry to confirm co-localization of V-sense emulsion droplets and macrophages. Hitchens et al. (2011) detected perfluorocarbon-labeled macrophages in a model of cardiac allograft rejection, which was confirmed via immunohistochemistry and histology. V-sense was used to study the impact of IL-12 on macrophage infiltration into the tumor (FIG. 8). […] Confocal images in FIG. 8B show V-sense (red) uptake by Celltracker™ Green RAW cells.

4T1 tumor [4] = experiment: Immune phenotyping of tumor immunocytes by flow; format: in vivo, murine; settings: 24 hours after treatment, preliminary
serum cytokines = experiment: Multiplex bead ELISA of serum cytokines; format: in vivo, BALB/c mice; settings: 5 hours after intratumoral injection
Method: Serum cytokines were analyzed 5 hours after intratumoral injection of liposomes using a mouse cytokine magnetic 10-plex panel kit (Invitrogen, Carlsbad, Calif., USA) for the Luminex® platform. Following retro-orbital eye bleed, plasma was collected by centrifugation at 1500 g for 10 minutes at 4° C. and stored at −80° C. Plates were prepared using 25 μL/well of the antibody-bound head. After 2 washes, 50 μL serum and 50 μL assay diluent (or 100 μL standard) were added and plates were incubated at room temperature for 2 hours on an orbital shaker. After two washes, 100 μL of biotinylated detector antibody was added to the heads and they were incubated for an additional hour, followed by two more washes and the addition of 100 μL streptavidin-RPE for 30 minutes. After a final two washes, beads were suspended in 125 μL wash solution and inserted into the XY platform of a Luminex MAGPIX Instrument (EMD Millipore, Billerica, Mass. USA). The assay protocol was designed using xPONENT software and samples were run at 100 events/bead region.
Multiplex Bead ELISA. Serum cytokines were analyzed 5 hr after intratumoral injection of liposomes using a mouse cytokine magnetic 10-plex panel kit (Invitrogen, Carlsbad, Calif. USA) for the Luminex® platform. Following retro-orbital eye bleed, plasma was collected by centrifugation at 1500×g for 10 min at 4° C. and stored at −80° C. […]

4T1 tumors [5] = experiment: Immunofluorescence of tumor sections (cellular phenotype of tumor microenvironment); format: in vivo, BALB/c mice
Method: Tissues were quick frozen in OCT (Tissue-Tek) and stored at −80° C. Tissue sections (10 μm) were fixed with ice-cold acetone for 15 minutes at −20° C. and washed three times with IX PBS using trays followed by blocking with 5% fetal bovine serum in PBS. Fluorescence-labeled antibodies [e-flour 615 CD8 (clone 53-6.7; 1:50), e-flour 570 Ki-67 (clone solA15: 1:100; eBioscience, San Diego, Calif., USA); FITC F4/80 (MCA497A488; 1:100), Alexa Fluor 647 CD204 (MCA1322; 1:100, AbD Serotec, Raleigh N.C., USA); and 33D1 (1:100, BD Biosciences, San Jose. Calif.: 1:500 secondary anti-rat IgG Alexa Fluor® 546; Invitrogen) and iNOS (6/iNOS/NOS; 1:100 BD Biosciences, San Jose, Calif., USA; 1:500 anti-rabbit IgG-TRITC, Jackson Immunoresearch Labs, Inc. West Grove, Pa., USA)] were incubated with tissues overnight at 4° C. in the presence of 5% FBS. Slides were then washed three times with PBS and mounted with ProLong® Gold AntiFade with DAPI (Invitrogen). Images were taken using an A1 Nikon confocal microscope and the percent positive cells were determined by manual counting of four arbitrary regions in random samples.
Tissues were quick frozen in OCT (Tissue-Tek) and stored at −80° C. Tissue sections (10 μm) were fixed with ice-cold acetone for 15 min at −20° C. and washed three times with 1×PBS using trays followed by blocking with 5% fetal bovine serum in PBS. Fluorescently-labeled antibodies [eFluor® 615 CD8 (clone 53-6.7; 1:50), eFluor® 570 Ki-67 (clone solA15; 1:100; eBioscience, San Diego, Calif. USA); FITC F4/80 (MCA497A488; 1:100), Alexa-Fluor® 647 CD204 (MCA1322; 1:100, AbD Serotec, Raleigh N.C. USA); and 33D1 (1:100, BD Biosciences, San Jose, Calif.; 1:500 secondary anti-rat IgG Alexa-Fluor® 546: Invitrogen) and iNOS (6/iNOS/NOS; 1:100 BD Biosciences. San Jose. Calif., USA; 1:500 anti-rabbit IgG-TRITC. Jackson ImmunoResearch Laboratories. Inc., West Grove, Pa. USA)] were incubated with tissues overnight at 4° C. in the presence of 5% FBS. Slides were then washed three times with PBS and mounted with ProLong® Gold AntiFade® with DAPI (Invitrogen). Images were obtained using a confocal microscope (A1 Nikon), and the percent-positive cells were determined by manual counting of four arbitrary regions in random samples.

Molecule | tumor growth (caliper measurements) [1] | cell death in tumor (TUNEL staining) (4T1 tumors [2]) | cell death (propidium iodide uptake) (4T1 breast cancer cells) | V-sense signal distribution in tumor (macrophage infiltration) (4T1 tumor [3]) | CD4+ T cells in the tumor (4T1 tumor [4]) | CD8+ T cells in the tumor (4T1 tumor [4]) | MDSC in the tumor (4T1 tumor [4]) | serum IFN-γ (serum cytokines) | CD8+ (cytolytic) T cells in the tumor (change) (4T1 tumors [5]; mouse, in vivo) | F4/80+ macrophages in the tumor (change) (4T1 tumors [5]; mouse, in vivo) | iNOS in tumors (change) (4T1 tumors [5]; mouse, in vivo) | increase in iNOS (nitric oxide synthase) expression in the tumor above basal levels (4T1 tumors [5]; mouse, in vivo) | 33D1+ dendritic cells in the tumor (change) (4T1 tumors [5]; tumor sections, immunofluorescence)
monophosphoryl lipid A [free MPL] | did not slow tumor growth | Minimal cell death | 16% | – | – | – | – | – | – | – | – | – | –
B1 | – | – | – | strong penetration of V-sense signal into tumor tissue | increases | increases | decreases | increase | increased | increased | enhancing production | 3 fold | increased
